{"source": "patent US20110059093A1", "about": "(Hoffmann-La Roche, published 2011)", "binders": {"B1": {"name": "anti-Tau pS422 antibody Mab 005 (antibody, V domains shown)", "VH": "QSVEESGGRLVTPGTPLTLTCTVSGLSLSSNAINWVRQAPGKGLEWIGYISTSGNTYYASWAKGRFTISKTSTTVDLKITSPTTEDTATYFCGRGDLWGPGTLVTVSS", "VL": "QVLTQTASPVSAAVGSTVTINCQASQSVYKNNYLAWFQQKPGQPPKRLIYSASTLASGVSSRFKGSGSGTQFTLTISDVQCDDAATYYCLGSCDSSSNNCVAFGGGTEVVVK", "notes": "Rabbit monoclonal antibody, recombinantly expressed in HEK293 with rabbit kappa and gamma constant regions"}, "B2": {"name": "anti-Tau pS422 antibody Mab 019 (antibody, V domains shown)", "VH": "QSVEESGGRLVTPGTPLTLTCTVSGIDLSSYTMNWVRQAPGKGLDWIGFINSGGYTSYASWTRGRFTISKTSTTVDLRITSPTTEDTATYFCARYGGGSGFDLWGPGTLVTVSS", "VL": "QVLTQTASSVSAAVGGTVTINCQSSQSVYNNRLAWYQQKPGQPPKLLIYKASTLASGVPSRFKGSGSGTQFTLTISDLECDDAATYYCAGGYINIFAFGGGTEVVVK", "notes": "as for B1"}, "B3": {"name": "anti-Tau pS422 antibody Mab 020 (antibody, V domains shown)", "VH": "QSVEESGGRLVTPGTPLTLTCKVSGFSLSSYDMNWVRQAPGKGLEWVGAISTGGNTYYASWAKGRFTISKTSTTVTLTITSPTTADTATYFCARGSSIWGPGTLVTVSL", "VL": "B1 VL with A35R, F37Y, S51T, S92G, C93Y, S95C, S96N, N98A, N99D, V101W", "notes": "as for B1"}, "B4": {"name": "anti-Tau pS422 antibody Mab 085 (antibody, V domains shown)", "VH": "QSVEESGGRLVTPGTPLTLTCTVSGLSLSSNAINWVRQAPGKGLEWIGYIAVSGNTYYASWAKGRFTISKASTTVDLKMTSPTAEDTGTYFCGKSNIWGPGTLVTVSL", "VL": "QVLTQTASPVSAAVGITVTISCQSSQSVRTNKLAWFQQKPGQPPKRLIYSASTLDSGVPSRFSASGSGTQFTLTISDVQCDDAATYYCLGYYDCSIADCVAFGGGTEVVVK", "notes": "as for B1"}, "B5": {"name": "anti-Tau pS422 antibody Mab 086 (antibody, V domains shown)", "VH": "B4 VH with L26F", "VL": "B4 VL with A7T, I16S, S56F, Y92F", "notes": "as for B1"}, "B6": {"name": "anti-Tau pS422 antibody Mab 097 (antibody, V domains shown)", "VH": "QSVEESGGRLVTPGTPLTLTCTVSGIDLSSYSITWVRQAPGKGLEYIGFIGTGGSTYYASWAKGRFTISRTSTTVDLKITSPTTEDTATYFCARGGDLWGPGTLVTVSS", "VL": "QVLTQTASSVSAAVGGTVTINCQSSQNVYNNNKLAWFQQKPGQPPKRLIYGASTLASGVSSRFKGSGSGTQFTLTISDLECDDAATYYCLGGYSGNIYTFGGGTEVVVK", "notes": "as for B1"}, "B7": {"name": "Mab2.10.3 (anti-Tau pS422 antibody) (antibody, IgG1, V domains shown)", "VH": "EVQLVESGGDLVRPGGSLKLSCAASGFTFRTYGMSWVRQTADKRLEWVATISSGGTYTYYADNVRERFTISRDNARDTLYLQMSRLESDDTAMYYCTRRYGYDGGGSFDVWGAGTRVTVSS", "VL": "EIVMTQAAPSVPVTPGESASISCRSNKSLLHSNGNTYLCWFLQRPGQSPQLLIYRMSTLAPGVPDRFSGSGSGTAFTLRISRLEAEDVGVYYCMQHIEYPLTFGAGTKLELK", "notes": "Mouse monoclonal antibody purified from hybridoma supernatant; also called clone 2.10.3; Tau_2.10.3"}}, "note": "Changes are numbered by the printed parent chain. Square brackets hold non-standard residues; d marks the D form. Ends that are not written are not given here. pS = N[C@@H](COP(=O)(O)O)C(=O)O"}
{"biological_target": "T1, phosphorylated MCAK fragment Ile-Gln-Lys-Gln-Lys-Arg-Arg-Ser(PO3H2)-Val-Asn-Ser-Lys-Ile-Pro-Ala (SEQ ID NO:17) (human, also: Glu(biotinyl-PEG) coupled to the peptide, site not given here)", "T1 construct": "Fragment of human mitotic centromere-associated kinesin (KIF2C, UniProt Q99661 printed); biotinylated control peptide; also called MCAK phosphopeptide", "T1 peptide": "IQKQKRR[pS]VNSKIPA", "assay": "ELISA, single point, MCAK phosphopeptide coated", "procedure": "(§1) Rabbit monoclonal antibodies were recombinantly expressed in HEK 293 cells. Cell culture supernatants or purified rabbit antibodies were tested for binding to biotinylated Tau (416-430)[pS422], non-phosphorylated Tau (416-430), KLH (key hole limpet hemocyanine) and the unrelated phospho-peptide MCAK_Human (88-102)[95-pSer] by ELISA. For the preparation of ELISA plates, streptavidine pre-coated microtiter plates were incubated with biotinylated Tau ([…])[pS422] at 50 ng/ml for 1 hour at room temperature. Coating with KLH or control peptides was performed at 1 μg/ml. Rabbit Anti Tau pS422 antibody (Abcam AB51071) or rabbit antibody containing supernatants were incubated in the antigen labeled microtiter plates for 60 min at various concentrations. After intensive washing, the binding of the rabbit antibodies was detected using a sheep anti-rabbit IgG digoxigenin conjugated detection antibody (Chemicon AQ301D). After incubation with TMB at room temperature absorbance at 370 nm-492 nm was measured. The antibody binding was characterized by its EC50 values. The antibody binding to biotinylated Tau (416-430)[pS422] and non-phosphorylated Tau (416-430) peptides was characterized by its EC50 values. Cross-reactivity with KLH or MCAK phosphopeptide was estimated by single-point measurement at high concentrations, i.e. at 1:5 dilution of the cell culture supernatants. […] Binding to KLH and MCAK control phosphopeptide was at background level with all antibodies, which is about […] of the maximal value measures with Tau phosphopeptide.", "units": {"OD 1:5 dilution of supernatant": "mE"}}
{"binder": "B1", "OD 1:5 dilution of supernatant": 0.067}
{"binder": "B2", "OD 1:5 dilution of supernatant": 0.023}
{"binder": "B3", "OD 1:5 dilution of supernatant": 0.01}
{"binder": "B4", "OD 1:5 dilution of supernatant": 0.062}
{"binder": "B5", "OD 1:5 dilution of supernatant": 0.104}
{"binder": "B6", "OD 1:5 dilution of supernatant": 0.029}
{"biological_target": "T2, Tau fragment Ser-Ile-Asp-Met-Val-Asp-Ser-Pro-Gln-Leu-Ala-Thr-Leu-Ala-Asp (SEQ ID NO:10) (human, also: biotinylated, site not given here)", "T2 construct": "Biotinylated control peptide on streptavidin plates; also called nonphosphorylated Tau fragment; non-phosphorylated Tau (416-430)", "T2 peptide": "SIDMVDSPQLATLAD", "assay": "ELISA, biotinylated peptide on streptavidin plate, anti-rabbit IgG detection", "procedure": "as §1", "units": {"EC50": "µg/mL"}}
{"binder": "B1", "EC50": 3.73}
{"binder": "B2", "EC50": 1.08}
{"binder": "B4", "EC50": 0.146}
{"binder": "B5", "EC50": 0.266}
{"binder": "B6", "EC50": 1.28}
{"biological_target": "T3, phosphorylated Tau fragment Ser-Ile-Asp-Met-Val-Asp-Ser(PO3H2)-Pro-Gln-Leu-Ala-Thr-Leu-Ala-Asp (SEQ ID NO:9) (human, also: biotin attached through 1x epsilon-lysine and 4x beta-alanine, site not given here)", "T3 construct": "also called Tau (416-430)[pS422]; Tau phosphopeptide", "T3 peptide": "SIDMVD[pS]PQLATLAD", "assay": "ELISA, biotinylated peptide on streptavidin plate, anti-rabbit IgG detection", "procedure": "as §1", "units": {"EC50": "µg/mL"}}
{"binder": "B1", "EC50": "< 0.003"}
{"binder": "B2", "EC50": "< 0.003"}
{"binder": "B4", "EC50": 0.0009}
{"binder": "B5", "EC50": 0.0011}
{"binder": "B6", "EC50": 0.0013}
{"biological_target": "T3, phosphorylated Tau fragment …", "assay": "ELISA, ratio of EC50 values on the two peptides", "units": {"selectivity compared to non-phosphorylated Tau peptide": "fold"}}
{"binder": "B1", "selectivity compared to non-phosphorylated Tau peptide": "≥ 100"}
{"binder": "B2", "selectivity compared to non-phosphorylated Tau peptide": "≥ 100"}
{"binder": "B4", "selectivity compared to non-phosphorylated Tau peptide": "≥ 100"}
{"binder": "B5", "selectivity compared to non-phosphorylated Tau peptide": "≥ 100"}
{"binder": "B6", "selectivity compared to non-phosphorylated Tau peptide": "≥ 100"}
{"biological_target": "T1, phosphorylated MCAK fragment …", "assay": "ELISA, biotinylated peptide on streptavidin plate", "procedure": "Peptides representing the Tau pS422 sequence 416-430 (phosphorylated and non phosphorylated) and MCAK_Human (88-102)[95-pSer] were synthesized and biotinylated to allow the coating to a streptavidin labeled microtiter plate. To test for maximal binding of Tau phosphopeptide to the assay plates, different concentrations of Tau phosphopeptide ranging from 1 ng/ml to 2000 ng/ml were used for coating. Finally 50 ng/ml Tau phosphopeptide was used for coating for 60 min at room temperature. Anti Tau pS422 antibodies 2.10.3., 2.20.4. and 5.6.11 were incubated in the peptide labeled microtiter plates for 60 min in concentrations up to 1000 ng/ml. After washing, the binding of the antibodies was detected using an anti-mouse—IgG Fc antibody which was POD-labeled. After incubation with ABTS® for 20 min at room temperature absorbance (O.D.) at 405 nm-492 nm was measured. The antibody binding was determined by EC₅₀. Typical EC₅₀ value could be determined in the range of 100 ng/ml for 2.10.3., 8 ng/ml for 2.20.4. and 1 ng/ml for 5.6.11. The nonphosphorylated Tau fragment and (MCAK_Human (88-102)[95-pSer]) were used as controls. No binding of the control peptides could be observed. Typical back-ground values were around 30 mE (Table 1), which is about 1% of the maximal value measured with phosphorylated Tau fragment. […]"}
{"binder": "B7", "binding result": "no binding (tested: up to 1000 ng/ml)"}
{"biological_target": "T4, KLH (key hole limpet hemocyanine)", "T4 construct": "Control antigen coated at 1 µg/ml", "assay": "ELISA, single point, KLH coated", "procedure": "as §1", "units": {"OD 1:5 dilution of supernatant": "mE"}}
{"binder": "B1", "OD 1:5 dilution of supernatant": 0.026}
{"binder": "B2", "OD 1:5 dilution of supernatant": 0.026}
{"binder": "B3", "OD 1:5 dilution of supernatant": 0.016}
{"binder": "B4", "OD 1:5 dilution of supernatant": 0.029}
{"binder": "B5", "OD 1:5 dilution of supernatant": 0.046}
{"binder": "B6", "OD 1:5 dilution of supernatant": 0.042}
